Experimental findings from paper PMC4382112 are described below.

Test [1] concerns the target soluble murine EPCR with a C-terminal myc-His tag (murine) (UniProt Q64695). Nature of the test: ELISA; plate binding assay: soluble murine EPCR (5 μg/ml) captured by immobilised anti-myc monoclonal antibody; murine protein C variants 0 to 1200 nM in TBS-1% BSA, 5mM CaCl2, 0.6mM MgCl2, 2 hours at 37°C with shaking; detected with sheep anti-murine protein C; one-site fit, apparent KD (KD(app)); n = 3. On the technique in general: ELISA stands for enzyme-linked immunosorbent assay.
UniProt Q64695, sequence (Q64695 18-214): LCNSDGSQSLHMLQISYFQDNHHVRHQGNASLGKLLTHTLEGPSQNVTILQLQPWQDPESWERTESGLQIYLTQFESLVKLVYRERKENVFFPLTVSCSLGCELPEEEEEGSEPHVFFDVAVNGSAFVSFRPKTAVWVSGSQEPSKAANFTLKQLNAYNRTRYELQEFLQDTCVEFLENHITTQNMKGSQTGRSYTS

In the case of “recombinant murine wt protein C (natural protein)”, in test [1], the Kd is 112 nM.

On to “murine protein C(S360A) (natural protein)”, for which the Kd in test [1] turned out to be 129 nM.

Regarding “plasma-derived murine protein C (natural protein)”, the Kd in test [1] worked out at 94.3 nM.

B1: human recombinant protein C inhibitor (PCI) (natural protein)
chain: EMKKRVEDLHVGATVAPSSRRDFTFDLYRALASAAPSQSIFFSPVSISMSLAMLSLGAGSSTKMQILEGLGLNLQKSSEKELHRGFQQLLQELNQPRDGFQLSLGNALFTDLVVDLQDTFVSAMKTLYLADTFPTNFRDSAGAMKQINDYVAKQTKGKIVDLLKNLDSNAVVIMVNYIFFKAKWETSFNHKGTQEQDFYVTSETVVRVPMMSREDQYHYLLDRNLSCRVVGVPYQGNATALFILPSEGKMQQVENGLSEKTLRKWLKMFKKRQLELYLPKFSIEGSYQLEKVLPSLGISNVFTSHADLSGISNHSNIQVSEMVHKAVVEVDESGTRAAAATGTIFTFRSARLNSQRLVFNRPFLMFIVDNNILFLGKVNRP
For the molecule B1, in the test with human APC(5A) (human), the inactivation of 20nM human APC variant by 200nM PCI at 37°C, residual APC activity on S-2366 over 0–20 minutes; half-life turned out to be 4 min.
